# Results: publication PMC10368004
# B1: annexin A5, P08758 1-320 (natural protein)
# chain: MAQVLRGTVTDFPGFDERADAETLRKAMKGLGTDEESILTLLTSRSNAQRQEISAAFKTLFGRDLLDDLKSELTGKFEKLIVALMKPSRLYDAYELKHALKGAGTNEKVLTEIIASRTPEELRAIKQVYEEEYGSSLEDDVVGDTSGYYQRMLVVLLQANRDPDAGIDEAQVEQDAQALFQAGELKWGTDEEKFITIFGTRSVSHLRKVFDKYMTISGFQIEETIDRETSGNLEQLLLAVVKSIRSIPAYLAETLYYAMKGAGTDDHTLIRVMVSRSEIDLFNIRKEFRKNFATSLYSMIKGDTSGDYKKALLLLCGEDD
# Legend:
# Test in all cases: FM-AFM imaging
# Settings in all cases: remark: other sources report otherwise
# [1] = molecular target: T1, annexin A5, P08758
# T1 chain: B1 chain
# [2] = molecular target: T1, annexin A5, P08758
# [3] = molecular target: T1, annexin A5, P08758
binder,measurement,setting,value
B1,"percentage of unoccupied hollow sites (vacancies, sites without an H-trimer)",[1],73.6%
same,stoichiometry N,[1],3
same,"percentage of unoccupied hollow sites (vacancies, sites without an H-trimer)",[2],65.9%
same,"percentage of unoccupied hollow sites (vacancies, sites without an H-trimer)",[3],56.1%
